# Laboratory results: publication PMC3326313
# Tests used:
# [1] = biological target: T1, GB1-His6-SRSF2 RRM wild type (Homo sapiens, UniProt Q01130 9-101); assay: NMR chemical shift titration
# T1 sequence: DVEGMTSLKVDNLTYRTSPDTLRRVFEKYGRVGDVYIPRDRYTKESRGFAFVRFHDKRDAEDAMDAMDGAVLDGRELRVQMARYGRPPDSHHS
# [2] = biological target: T1, GB1-His6-SRSF2 RRM wild type; assay: ITC
binder,measurement,setting,value
GAGUA (ssRNA) [5-mer GAGUA],Kd,[1],~500 µM
AGCAGAGUA (ssRNA) [9-mer AGCAGAGUA],Kd,[2],0.061 ± 0.001 µM
